Experimental data taken from article PMC12279954 (Nature Communications, 2025).

T1: human haptoglobin Hp1 (residue 1-347) (human, UniProt P00738-2 19-347)
T1 sequence: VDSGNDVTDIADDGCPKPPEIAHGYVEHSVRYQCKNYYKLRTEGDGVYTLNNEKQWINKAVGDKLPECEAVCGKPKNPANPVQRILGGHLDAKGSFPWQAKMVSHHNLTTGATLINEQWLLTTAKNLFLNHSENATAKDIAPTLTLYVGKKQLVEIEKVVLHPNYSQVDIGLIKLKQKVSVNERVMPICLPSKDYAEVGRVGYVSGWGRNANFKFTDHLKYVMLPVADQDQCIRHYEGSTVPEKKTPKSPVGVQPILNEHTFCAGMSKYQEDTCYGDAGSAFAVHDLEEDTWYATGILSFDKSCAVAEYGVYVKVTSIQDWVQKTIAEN

B1: human hemoglobin (complex)
chain 1: not shown
chain 2: not shown
B2: human haptoglobin Hp2 (residue 1-406) (natural protein)
chain: VDSGNDVTDIADDGCPKPPEIAHGYVEHSVRYQCKNYYKLRTEGDGVYTLNDKKQWINKAVGDKLPECEADDGCPKPPEIAHGYVEHSVRYQCKNYYKLRTEGDGVYTLNNEKQWINKAVGDKLPECEAVCGKPKNPANPVQRILGGHLDAKGSFPWQAKMVSHHNLTTGATLINEQWLLTTAKNLFLNHSENATAKDIAPTLTLYVGKKQLVEIEKVVLHPNYSQVDIGLIKLKQKVSVNERVMPICLPSKDYAEVGRVGYVSGWGRNANFKFTDHLKYVMLPVADQDQCIRHYEGSTVPEKKTPKSPVGVQPILNEHTFCAGMSKYQEDTCYGDAGSAFAVHDLEEDTWYATGILSFDKSCAVAEYGVYVKVTSIQDWVQKTIAEN
B3: CD163 ectodomain (human CD163, residue 1-1050) (receptor)
chain: not shown
B4: hemoglobin-haptoglobin 2 complex (Hb-Hp2) (complex)
chain 1: not shown
chain 2: not shown
chain 3: B2 chain
B5: hemoglobin-haptoglobin 1 complex (Hb-Hp1) (complex)
chain 1: not shown
chain 2: not shown
chain 3: T1 sequence

How the values were obtained:
[1] = target: B2; experiment: SEC
[2] = target: T1, human haptoglobin Hp1 (residue 1-347); experiment: SEC
SEC [3] = target: the molecule itself; experiment: SEC
AUC [4] = target: the molecule itself; experiment: AUC
AUC [5] = target: the molecule itself; experiment: AUC; remark: listed apart in the source
SEC [6] = target: the molecule itself; experiment: SEC; remark: listed apart in the source
[7] = target: B3; experiment: SEC
[8] = target: B3; experiment: AUC
[9] = target: CD163 ectodomain D292A/D293A (human, UniProt Q86VB7 42-1050, D292A | D293A); experiment: pull-down
Sequence of CD163 ectodomain D292A/D293A (Q86VB7 42-1050 D292A/D293A): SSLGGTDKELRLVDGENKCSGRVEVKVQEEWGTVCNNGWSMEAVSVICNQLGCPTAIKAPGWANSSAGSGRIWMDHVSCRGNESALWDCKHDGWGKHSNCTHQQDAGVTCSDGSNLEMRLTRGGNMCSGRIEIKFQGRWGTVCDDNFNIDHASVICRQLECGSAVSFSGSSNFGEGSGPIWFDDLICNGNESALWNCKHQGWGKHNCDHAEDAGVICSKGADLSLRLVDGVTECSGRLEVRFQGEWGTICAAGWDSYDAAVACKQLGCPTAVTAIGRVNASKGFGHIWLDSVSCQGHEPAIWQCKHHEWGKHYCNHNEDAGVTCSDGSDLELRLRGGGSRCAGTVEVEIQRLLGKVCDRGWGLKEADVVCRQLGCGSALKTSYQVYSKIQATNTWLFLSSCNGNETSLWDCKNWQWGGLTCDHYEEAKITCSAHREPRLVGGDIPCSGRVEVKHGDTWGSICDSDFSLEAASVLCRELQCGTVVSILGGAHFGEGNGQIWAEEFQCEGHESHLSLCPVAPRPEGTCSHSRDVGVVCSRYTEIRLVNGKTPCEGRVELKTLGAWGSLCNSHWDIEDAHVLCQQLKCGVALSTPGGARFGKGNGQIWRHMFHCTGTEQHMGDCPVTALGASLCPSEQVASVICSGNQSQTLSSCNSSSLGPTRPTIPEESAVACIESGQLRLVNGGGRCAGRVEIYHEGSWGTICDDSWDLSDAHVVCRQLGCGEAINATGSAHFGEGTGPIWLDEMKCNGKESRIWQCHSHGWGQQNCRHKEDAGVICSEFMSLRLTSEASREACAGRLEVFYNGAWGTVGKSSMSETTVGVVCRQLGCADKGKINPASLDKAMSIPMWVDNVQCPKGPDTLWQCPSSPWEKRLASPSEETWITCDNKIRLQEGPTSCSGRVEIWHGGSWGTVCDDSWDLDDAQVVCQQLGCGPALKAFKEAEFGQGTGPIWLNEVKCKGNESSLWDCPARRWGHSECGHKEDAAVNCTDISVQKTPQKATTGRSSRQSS

CD163 ectodomain E359A = CD163 ectodomain E359A (human, UniProt Q86VB7 42-1050, E359A); experiment: pull-down
Sequence of CD163 ectodomain E359A (Q86VB7 42-1050 E359A): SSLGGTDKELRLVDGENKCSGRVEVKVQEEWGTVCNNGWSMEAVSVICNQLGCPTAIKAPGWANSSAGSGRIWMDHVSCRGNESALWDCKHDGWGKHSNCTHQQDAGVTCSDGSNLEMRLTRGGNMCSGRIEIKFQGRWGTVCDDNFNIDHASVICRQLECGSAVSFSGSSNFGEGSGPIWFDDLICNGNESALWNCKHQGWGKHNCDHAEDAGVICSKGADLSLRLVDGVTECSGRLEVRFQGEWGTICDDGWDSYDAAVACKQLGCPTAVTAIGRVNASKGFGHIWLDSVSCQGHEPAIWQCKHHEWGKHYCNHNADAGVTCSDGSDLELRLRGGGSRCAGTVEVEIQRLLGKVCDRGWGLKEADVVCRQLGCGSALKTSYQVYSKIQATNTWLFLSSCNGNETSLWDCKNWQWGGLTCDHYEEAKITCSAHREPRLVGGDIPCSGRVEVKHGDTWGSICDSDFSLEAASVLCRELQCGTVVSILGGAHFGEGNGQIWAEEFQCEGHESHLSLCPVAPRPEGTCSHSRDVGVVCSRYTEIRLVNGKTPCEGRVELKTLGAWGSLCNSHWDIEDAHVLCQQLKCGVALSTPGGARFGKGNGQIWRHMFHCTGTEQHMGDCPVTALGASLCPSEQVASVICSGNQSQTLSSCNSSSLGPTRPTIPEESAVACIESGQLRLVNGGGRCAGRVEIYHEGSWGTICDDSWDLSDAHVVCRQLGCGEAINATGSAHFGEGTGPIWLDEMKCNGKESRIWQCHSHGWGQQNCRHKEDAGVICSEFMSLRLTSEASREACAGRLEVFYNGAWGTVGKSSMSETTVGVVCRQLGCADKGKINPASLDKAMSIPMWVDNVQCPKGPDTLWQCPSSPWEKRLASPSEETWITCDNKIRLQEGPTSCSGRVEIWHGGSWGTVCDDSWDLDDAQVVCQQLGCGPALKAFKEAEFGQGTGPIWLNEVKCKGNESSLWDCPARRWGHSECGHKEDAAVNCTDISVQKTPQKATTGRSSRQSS

Binder: B1
- binding result [1]: binds
- binding result [2]: binds

Binder: B2
- binding result (SEC [3]): binds

Binder: B3
- stoichiometry N (AUC [4]): 3
- stoichiometry N (AUC [5]): 2
- stoichiometry N (SEC [6]): ~3

Binder: B4
- binding result [7]: binds

Binder: B5
- binding result [8]: binds
- binding result [9]: binds
- binding result (CD163 ectodomain E359A): binds
